Data: patent US20200031885A1
Each block holds one substance with its values, some of them ahead of it.

Legend:
Assay in all cases: affinity capture from mixture of 54 pTyr peptides, PRM-MS
[1] = target: EPHB3 (pTyr792) peptide …pYTSSLGGK
[2] = target: BTK (pTyr551) peptide YVLDDEpYTSSVGSK
[3] = target: FGFR3 (pTyr647/648) peptide DVHNLDpYpYK
[4] = target: DDR2 (pTyr740/741) peptide NLYSGDpYpYR
[5] = target: NTRK1 (pTyr680/681) peptide DIYSTDpYpYR
[6] = target: FGFR1 (pTyr653/654) peptide DIHHIDpYpYK
[7] = target: DDR1 (pTyr796/797) peptide NLYAGDpYpYR
[8] = target: ERBB3 (pTyr866) peptide QLLpYSEAK
[9] = target: ERBB2 (pTyr877) peptide LLDIDETEpYHADGGK
[10] = target: LMTK3 (pTyr296/297) peptide EDpYpYLTPER
[11] = target: TXK (pTyr420) peptide YVLDDEpYVSSFGAK
[12] = target: EPHA1 (pTyr781) peptide LLDDFDGTpYETQGGK
[13] = target: JAK3 (pTyr980/981) peptide DpYpYVVR
[14] = target: NTRK2 (pTyr706/707) peptide DVYSTDpYpYR
[15] = target: JAK2 (pTyr221) peptide IQDpYHILTR
[16] = target: TYK2 (pTyr1054/1055) peptide AVPEGHEpYpYR
[17] = target: JAK1 (pTyr1034/1035) peptide EpYpYTVK
[18] = target: MET (pTyr1234/1235) peptide EpYpYSVHNK
[19] = target: ROR2 (pTyr645/646) peptide EVYAADpYpYK
[20] = target: TEC (pTyr519) peptide YVLDDQpYTSSSGAK
[21] = target: ROR1 (pTyr645/646) peptide EIYSADpYpYR
[22] = target: PTK7 (pTyr960/961) peptide DVYNSEpYpYHFR
[23] = target: RON (pTyr1238/1239) peptide EpYpYSVQQHR
[24] = target: LMTK2 (pTyr295) peptide EDpYIETDDK
[25] = target: INSRR (pTyr1145/1146) peptide DVYETDpYpYR
[26] = target: FGFR2 (pTyr656/657) peptide DINNIDpYpYK
[27] = target: EPHA8 (pTyr793) peptide …pYTTTGGK
[28] = target: FGFR4 (pTyr642/643) peptide GVHHIDpYpYK
[29] = target: EPHA2 (pTyr772) peptide …pYTTSGGK
[30] = target: EPHA6 (pTyr830) peptide …pYTTTGGK
[31] = target: EPHB2 (pTyr780) peptide …pYTSALGGK
[32] = target: TIE2 (pTyr992) peptide GQEVpYVK
[33] = target: MUSK (pTyr755/756) peptide NIYSADpYpYK
[34] = target: TIE1 (pTyr1007) peptide GEEVpYVK
[35] = target: HCK (pTyr411) peptide VIEDNEpYTAR
[36] = target: ITK (pTyr512) peptide FVLDDQpYTSSTGTK
[37] = target: SRC (pTyr419) peptide LIEDNEpYTAR
[38] = target: FES (pTyr713) peptide EEADGVpYAASGGLR
[39] = target: EPHB1 (pTyr778) peptide …pYTSSLGGK
[40] = target: KIT (pTyr823) peptide NDSNpYVVK
[41] = target: RET (pTyr905) peptide DVYEEDSpYVK
[42] = target: VGFR2 (pTyr1059) peptide DPDpYVR
[43] = target: BLK (pTyr389) peptide IIDSEpYTAQEGAK
[44] = target: BMX (pTyr566) peptide YVLDDQpYVSSVGTK
[45] = target: FER (pTyr714) peptide QEDGGVpYSSSGLK
[46] = target: FRK (pTyr387) peptide VDNEDIpYESR
[47] = target: EPHB4 (pTyr774) peptide …pYTSSLGGK
[48] = target: EPHA3 (pTyr779) peptide …pYTTR
[49] = target: PGFRB (pTyr857) peptide DSNpYISK
[50] = target: MERTK (pTyr753/754) peptide IYSGDpYpYR
[51] = target: VGFR1 (pTyr1053) peptide NPDpYVR
[52] = target: SRMS (pTyr380) peptide DDIpYSPSSSSK
[53] = target: GSK3 (pTyr279/216) peptide GEPNVSpYICSR

PRM signal peak area [1]: 14700
PRM signal peak area [2]: 18200
PRM signal peak area [3]: 64600
PRM signal peak area [4]: 16200
PRM signal peak area [5]: 30200
PRM signal peak area [6]: 29000
PRM signal peak area [7]: 43200
PRM signal peak area [8]: 152000
PRM signal peak area [9]: 4640
PRM signal peak area [10]: 78600
PRM signal peak area [11]: 46100
PRM signal peak area [12]: 12300
PRM signal peak area [13]: 10500
PRM signal peak area [14]: 22800
PRM signal peak area [15]: 39200
PRM signal peak area [16]: 9680
PRM signal peak area [17]: 46200
PRM signal peak area [18]: 70800
PRM signal peak area [19]: 60500
PRM signal peak area [20]: 4820
PRM signal peak area [21]: 27700
PRM signal peak area [22]: 4840
PRM signal peak area [23]: 17400
PRM signal peak area [24]: 1120
PRM signal peak area [25]: 7790
PRM signal peak area [26]: 39500
PRM signal peak area [27]: 57100
PRM signal peak area [28]: 30000
PRM signal peak area [29]: 4860
PRM signal peak area [30]: 51100
PRM signal peak area [31]: 98000
Substance: DM human Src SH2 Superbinder expressed with His6 and GST tags (designed binder)

PRM signal peak area [1]: 260000
PRM signal peak area [2]: 1.31e+06
PRM signal peak area [32]: 210000
PRM signal peak area [33]: 178000
PRM signal peak area [34]: 409000
PRM signal peak area [35]: 384000
PRM signal peak area [36]: 403000
PRM signal peak area [37]: 99500
PRM signal peak area [3]: 258000
PRM signal peak area [38]: 25100
PRM signal peak area [4]: 185000
PRM signal peak area [5]: 103000
PRM signal peak area [6]: 51200
PRM signal peak area [39]: 206000
PRM signal peak area [7]: 338000
PRM signal peak area [40]: 235000
PRM signal peak area [41]: 883000
PRM signal peak area [42]: 197000
PRM signal peak area [8]: 164000
PRM signal peak area [9]: 42700
PRM signal peak area [43]: 156000
PRM signal peak area [10]: 376000
PRM signal peak area [11]: 272000
PRM signal peak area [12]: 188000
PRM signal peak area [13]: 19700
PRM signal peak area [44]: 151000
PRM signal peak area [14]: 115000
PRM signal peak area [45]: 27400
PRM signal peak area [46]: 291000
PRM signal peak area [15]: 85500
PRM signal peak area [47]: 134000
PRM signal peak area [16]: 53500
PRM signal peak area [17]: 110000
PRM signal peak area [18]: 111000
PRM signal peak area [19]: 334000
PRM signal peak area [20]: 781000
PRM signal peak area [21]: 177000
PRM signal peak area [22]: 8860
PRM signal peak area [23]: 44300
PRM signal peak area [24]: 20900
PRM signal peak area [48]: 394000
PRM signal peak area [49]: 398000
PRM signal peak area [25]: 20800
PRM signal peak area [26]: 87100
PRM signal peak area [27]: 585000
PRM signal peak area [28]: 36100
PRM signal peak area [50]: 26500
PRM signal peak area [51]: 158000
PRM signal peak area [52]: 479000
PRM signal peak area [29]: 347000
PRM signal peak area [53]: 48300
PRM signal peak area [30]: 288000
PRM signal peak area [31]: 215000
Substance: TrM human Src SH2 Superbinder expressed with His6 and GST tags (designed binder)

PRM signal peak area [2]: 4210
PRM signal peak area [33]: 47600
PRM signal peak area [3]: 104000
PRM signal peak area [4]: 15300
PRM signal peak area [5]: 21700
PRM signal peak area [6]: 28500
PRM signal peak area [7]: 47700
PRM signal peak area [8]: 41900
PRM signal peak area [10]: 29900
PRM signal peak area [11]: 1520
PRM signal peak area [13]: 23300
PRM signal peak area [14]: 39600
PRM signal peak area [16]: 11600
PRM signal peak area [17]: 58300
PRM signal peak area [18]: 26800
PRM signal peak area [19]: 85900
PRM signal peak area [21]: 32400
PRM signal peak area [23]: 5430
PRM signal peak area [26]: 51600
PRM signal peak area [28]: 29800
PRM signal peak area [30]: 2740
PRM signal peak area [31]: 10800
Substance: wild-type (wt) human Src SH2 domain expressed with His6 and GST tags
